According to patent publication US20200223906A1 (Adimab, published 2020):

B1: ADI-18941 (antibody, V domains shown)
VH: EVQLVESAAEVKKPGESLKISCKGSGYSFASHWIGWVRQMPGKGLELMGFIYPGDSDTRYNPSFQGQVTISADKSISTAYLQWTRLKASDTAMYYCGQAVAGGEYFHHWGQGTLVTVSS
VL: DIVMTQSPATLSVSPGERATLSCRASQSLGSDLAWYQQKPGQTPRLLIYDASTRATGIPARFSGSGSGTEFTLTISSLQSEDFAVYYCQHYNNWPRGFGQGTKVEIK
notes: full-length IgG from yeast
B2: ADI-18938 (antibody, V domains shown)
VH: EVQLLESGGGLVQPGGSLRLSCAASGFTFSNYWMHWVRQAPGKGLVWVSRISGDGSDTTYADSVEGRFTISRDNARSTLYLQLNSLTGDDTAVYYCARDLWTTSPYFDLWGQGTLVTVSS
VL: EIVLTQSPGTLSASIGDRVTITCRASQSLNGWLAWYQQKPGKAPRLLIYKSSSLESGVPSRFSGSASGTEFTLTISSLQPDDFATYYCQQYNSWAFGQGTKVDVK
notes: full-length IgG from yeast; also called Antibody Number 291; Ab # 291
B3: ADI-18924 (antibody, V domains shown)
VH: QVQLVQSGAEVKKPGESLKISCQGSGYSFSSFWIVWVRQMPGKGLEWMGSIYPGDSDTRYTPSFQGQVTISADKSTSTAYLQWNSLKPSDTAMYYCARCSLSCDYYGVNLWGQGTTVTVSS
VL: QSVVTQPPSVSGAPGQRVTISCSGSSSNIGARSDVHWYQQLPGKAPKLLIYGNTNRPLGVPDRFSGSTSGTSASLAISGLQAEDEGYYYCQSYDSSLSGFYVFGTGTKLTVL
notes: full-length IgG from yeast
B4: ADI-18911 (antibody, V domains shown)
VH: QVQLVESGAEARKPGESLKISCKASGYSFTNYWIGWVRQMPGKGLEWMGVIYPADSDTRYSPSFKGQVTISADKSISTAYLQWTRLKASDTAVYFCARLGIGAAARNYWGQGTLVTVSS
VL: DIQVTQSPSSLSASVGDRVTITCQASQDISDSLNWYQQKPGKAPNLLIYDASKSETGVPSRFSGSGSGTDFTFTISSLQPEDLATYYCLQFDNLPPTFGQGTRLEIK
notes: full-length IgG from yeast
B5: ADI-18947 (antibody, V domains shown)
VH: QVQLVQSGGGVVQSGRSLRLSCAASGFTFSDNGMHWVRQAPGKGLEWVAGIFHDGSNKQYAESVKGRFIISRDNSKNTLYLQMNSLRAEDTALYFCARAPYDIWSGYCLDYWGQGTLVTVSS
VL: DIRMTQSPATLSLSPGESATLSCRASQSVINNLAWYQQRPGQAPRLLIYGASTRATGIPARFSGSGSETEFTLTISSLQSEDFAVYHCQQYSIWPQTFGQGTKLEIK
notes: full-length IgG from yeast
B6: ADI-18896 (antibody, V domains shown)
VH: EVQLLESGGGVVQSGRSLRLSCAASGFTFSDNGMHWVRQAPGKGLEWVAGIFYDGSNKQYADSVKGRFTISRDNSKSTLYLQMNSLRAEDTAVYYCARAPYDIWSGYCLDYWGQGTLVTVSS
VL: DIQMTQTPATLSMSPGERATLSCRASQSVNNNLAWYQQRPGQAPRLLIYGASTRATGIPARFSGSGSETEFTLTISSLQSEDFAVYHCQQYSIWPQTFGQGTKLEIK
notes: full-length IgG from yeast
B7: ADI-18899 (antibody, V domains shown)
VH: EVQLVESGGGVVQSGRSLRLSCAASGFTFSDNGMHWVRQAPGKGLEWVAGIFYDGSNKQYADSVKGRFTISRDNSKSTLYLQMNSLRAEDTAVYYCARAPYDIWSGYCLDYWGQGTLVTVSS
VL: DIRLTQSPATLSMSPGERATLSCRASQSVNNNLAWYQQRPGQAPRLLIYGASTRATGIPARFSGSGSETEFTLTISSLQSEDFAVYHCQQYSIWPQTFGQGTKVDIK
notes: full-length IgG from yeast
B8: ADI-18948 (antibody, V domains shown)
VH: EVQLLESGGGVVQSGRSLRLSCVASGFTFSDSGMHWVRQAPGKGLEWVAGLFYDGSNKQYADSVKGRFTISRDNSKSTLYLQMNSLRAEDTAVYYCARAPYDIWSGYCLDYWGQGTLVTVSS
VL: EIVLTQSPATLYMSPGERATLSCRASQSVNNNLAWYQQRPGQAPRLLIYGASTRATGIPARFSGSGSETEFTLTISSLQSEDFAVYHCQQYSIWPQTFGQGTKLEIK
notes: full-length IgG from yeast; also called Antibody Number 300; Ab # 300
B9: ADI-18955 (antibody, V domains shown)
VH: EVQLVESGGGVVQSGRSLRLSCAASGFIFSDNGMHWVRQAPGKGLEWVAGIFYDGSNKQYADSVKGRFTISRDNSKNTLYLQMKSLRAEDTAVYYCARAPYDIWSGYCLDYWGQGTLVTVSS
VL: DIQVTQSPATLSMSPGERATLSCRASQSVNNNLAWYQQRPGQAPRLLIYGASTRATGIPARFSGSGSETEFTLTISSLQSEDFAVYHCQQYSIWPQTFGQGTKVEIK
notes: full-length IgG from yeast; also called Antibody Number 306; Ab # 306
B10: ADI-18918 (antibody, V domains shown)
VH: QVQLVQSGAEVKKPGESLKISCKGSGYSFSSFWIGWVRQMPGKGLEWMGIIYPGDSDTRYSPSFQGQVTMSADTSINTAYLQWNSVKASDTAIYYCARLPVGSYYYFNLWGRGTLVTVSS
VL: EIVMTQSPATLSVSPGESATLFCRASQSISSDLAWYQQRPGQAPRLLIYDASTRATGVPARFSATGSEAEFTLTISGLQSEDFAVYYCQQYNNWLSWTFGQGTKLEIK
notes: full-length IgG from yeast
B11: ADI-18942 (antibody, V domains shown)
VH: QVQLQESGPGRVKPSQTLSLTCTVSGVSVTINDYYWTWLRQSPGKGLEWIGNIYNSGSTYQNPSLQSRVTMSVDTAKNHFSLKLTSVTAADTAVYYCARDLGTANNYYFGMDVWGLGTTVTVSS
VL: EIVMTQSPATLSLSPGERATLSCRASQSVSTYLAWYQQKPGQAPRLLIYNGSNRVTGTPARFSGSGSGTDFTLTISSVEPEDFAVYYCQQRSNWPPYTFGQGTKVEIK
notes: full-length IgG from yeast; also called Antibody Number 295; Ab # 295
B12: ADI-18933 (antibody, V domains shown)
VH: QVQLVESGAEVKKPGASVKVACTASGYAFTNYNIHWVRLAPGQGLEWMAIINPGSGGTDYSEKFQGRLTLTSDTSTSTVYMTLGSLRYEDTAFYYCARRGYPDSGSYPLDYWGQGTLVTVSS
VL: DIVMTQSPSSLSASLGDRVTITCRAGRSIATYLNWYQQKPGKAPKLLIYGASSLQSGVPSRFSGSGSGTHFTLTISSLQPEDFATYYCQQSYIRPITFGGGTKVEIK
notes: full-length IgG from yeast
B13: ADI-18878 (antibody, V domains shown)
VH: QVQLQESGPRLVKPSQTLSLICDVSGGSIGSGDHYWSWIRQPPGKGLEWIGYIYYSGTTYYNPSLKSRVTISADTSKNQLSLKLSSVTAADTAIYFCARDGGYDHVWGTHRYFDKWGQGTLVTVSS
VL: EIVLTQSPGTLSLSPGERATLSCRASQSVSNSYLAWYQQKPGQAPRLLIYGVSTRATGIPDRFSGSGSGTDFTLTISRLEPEDFAMYHCQQYGASPWTFGQGTKVDIK
notes: full-length IgG from yeast; also called Antibody Number 235; Ab # 235
B14: ADI-18895 (antibody, V domains shown)
VH: QVQLVQSGPEVKKTRESLKIYCKGSGYSFISHWIGWVRQKPGKGLEWMGIIYPGDSDTRYSPSFQGQVAISADKSINTAYLQWSSLKSSDTAIYYCASVMLRGIMWGQGTLVTVSS
VL: DIRLTQSPSSLSASVGDRVTITCQASQDISKYLNWYQQKPGKAPKLLIYDASNLETGVPSRFSGSGSGTDFTFTISSLQPEDIATYYCQPYDNLPPPLTFGGGTKLEIK
notes: full-length IgG from yeast; also called Antibody Number 250; Ab # 250
B15: ADI-18909 (antibody, V domains shown)
VH: QVQLQESGPGLVKPSQTLSLTCTVSGRFLNSGDYYWSWIRQSPGKGLEWLGYIHHSGNTYYNPSLKSRLTISLDMSKNQFSLKLSSVTAADTAVYYCARDLGKPLWDGHYYYGVDVWGQGTTVTVSS
VL: DIVMTQSPGTLSLSPGERATLSCRTSQNVNSNYLAWYQHKPGQAPRLLIYGASSRVTGIPDRFSGSGSGTDFTLTITRVESEDFAVYYCQVYSSSPPITFGQGTKVEIK
notes: full-length IgG from yeast; also called Antibody Number 264; Ab # 264
B16: ADI-18946 (antibody, V domains shown)
VH: QVQLVQSGGGVVQPGRSLRLSCAASGFTFSDYAMHWVRQAPGKGLEWVAIISYDANNKYYADSVKGRFTISRDNSKNTVYLQMNSLRPEDTAVYYCAKEEWLVPAYWGQGILVTVSS
VL: QSVLTQPASVSGSPGQSITISCTGTSSDVGGYNYVSWYQQHPGKAPKLLIYEVSNRPSGVSNRFSGSKSGNTASLTISGLQPEDEADYYCSSYSTNSAPFGTGTKLTVL
notes: full-length IgG from yeast

Assays:
[1] = target: T1, RSV F subtype B, furin-cleaved ectodomain stabilized in the postfusion conformation (F ΔFP) (Respiratory syncytial virus subtype B); experiment: BLI, IgG on AHQ sensor, 100 nM antigen
T1 construct: extracellular domain; Trimeric soluble antigen; also called Postfusion subtype B

[2] = target: T2, RSV F subtype A, furin-cleaved ectodomain stabilized in the postfusion conformation (F ΔFP) (Respiratory syncytial virus subtype A, UniProt P03420 26-109; P03420 147-524); experiment: BLI, IgG on AHQ sensor, 100 nM antigen
T2 construct: extracellular domain; Trimeric soluble antigen; also called Postfusion subtype A

[3] = target: RSV F protein of subtype B (18537) on recombinant mKate-RSV virus (Respiratory syncytial virus subtype B …, UniProt P13843 26-574); experiment: cell-based or functional assay
[4] = target: RSV F protein of subtype A (strain A2) on recombinant mKate-RSV virus (Respiratory syncytial virus subtype A …, UniProt P03420 26-574); experiment: cell-based or functional assay
[5] = target: T3, RSV F subtype B, furin-cleaved ectodomain stabilized in the prefusion conformation (DS-Cav1) (Respiratory syncytial virus subtype B); experiment: BLI, IgG on AHQ sensor, 100 nM antigen
T3 construct: extracellular domain; Trimeric soluble antigen; also called Prefusion subtype B

[6] = target: T4, RSV F subtype A, furin-cleaved ectodomain stabilized in the prefusion conformation (DS-Cav1) (Respiratory syncytial virus subtype A, UniProt P03420 26-524); experiment: BLI, IgG on AHQ sensor, 100 nM antigen
T4 construct: extracellular domain; Trimeric soluble antigen; also called Prefusion subtype A

Binder | Kd [1] [nM] | Kd [2] [nM] | Neut IC50 (µg/ml) subtype B [3] [µg/mL] | Neut IC50 (µg/ml) subtype A [4] [µg/mL] | Kd [5] [nM] | Kd [6] [nM]
B1 | 0.645 | 19.1 | > 10 | > 10 |  | 
B2 | 0.168 | 0.216 | 4.25 | 0.837 | 0.15 | 0.165
B3 | 0.321 | 0.411 | 1.07 | 0.572 |  | 6.48
B4 | 0.28 | 0.353 | 4.85 | 0.301 |  | 
B5 | 0.282 | 0.296 | 3.6 | 1.3 | 2.2 | 2.45
B6 | 0.27 | 0.279 | 4.72 | 1.1 | 1.81 | 2.27
B7 | 0.251 | 0.266 | 2.7 | 0.742 | 1.59 | 1.92
B8 | 0.247 | 0.257 | 4.35 | 1.12 | 2.1 | 4.55
B9 | 0.25 | 0.256 | 3.12 | 1.93 | 2.37 | 0.599
B10 | 0.409 | 0.567 | 4.59 | 0.377 |  | 
B11 | 0.258 | 0.281 | 0.614 | 0.374 | 0.512 | 0.865
B12 | 0.616 | 20 | 0.137 | 0.075 |  | 
B13 | 0.388 |  | 8.31 | > 10 | 5.82 | 
B14 | 0.486 | 2.37 | > 10 | 2.3 |  | 
B15 | 0.225 |  | 0.169 | 0.11 | 0.288 | 
B16 | 0.166 | 0.206 | 0.227 | 0.093 | 0.157 | 0.158
